Test: yeast display, Sf9 membrane polyspecificity reagent, FACS + sequencing; frameworks hold sequencing errors
Method in brief: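 Using colony PCR, genes from sorted yeast display clones were amplified, then sequenced on MiSeq at 2 × 250 and filtered by CDR length. The clones had been stained with 10% biotinylated, detergent-solubilized Sf9 membrane reagent for 1 hour at 4 °C and sorted by FACS into low and high (top ~1%) gates on anti-HA and streptavidin fluorescence. Polyreactivity labels come from the gate of origin.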

Row | Sequence | polyreactivity (PSR sort gate)
1 | QVQLVESGGGLVQAGGSLRLSFAASGGTLDVYAMGWYRQAPGKEREFVAAISWSGGRTYYADSVKGRFTISRDNAKNTVYLQMISLKPEDTAVFFCATDLYISIRYGGYYWGQGTQVTVSS | high polyreactivity
2 | QVQLVESGGGLVQAGGSLRLNCAASGSTFFGNAMGWYRQAPGKERELVAAISGSGGSTYYADSVKGRFTISRDNAKNTVYLQMNSLKPEDTAVYYCAKYYLTGLARYDYWGQGTQVTVSS | high polyreactivity
3 | QVQLVESGGGLVQAGGSLRLICAASGRTFSNAMGWYRQAPGKERELVADISSGGSPNYADSVKGRFTISRDNAKNTVYLEINSLKPEDTAVYYCAAFSGCLYGYSDDYWGQGTQVTVSS | low polyreactivity
4 | QVQLVESGGGLVQAGGSLRLSCAASGSIIPSYSMGWYRQAPGKERDLVATIGRGGTTNYADSVKGRFTISLDNAKNTVYLQMNSLKPEDTAVYYCYAERIWRYKYGYDYWGQGSQVTVSS | high polyreactivity
5 | QVQLVESGGGLVQAGGSLRLSCAASGRIIGNYAMGWYRPAPGKERELVARISQSGGSTYYADSVKGRFTISRDHAKNSLYLQMNSLKPEDTAVYYCAKRGRYRYDRDNRYEYWGQGTQVNVSS | low polyreactivity
6 | QDQLVESGGGLVQAGGSLRLSCAASGFIFGLYAMGWYRQAPGKERELVAAISSGGSTYYADSVKGRFTISRDNAKNTVYLQMNSLKPEDTAVYYCAAYYVYSEYDYWGQGTQVTVSS | high polyreactivity
7 | QVQLVESAGGLVQAGGSLRLSCAAYGRIFAYNAMGWYRQSPGKERELVAAITWSGDSTYYADSVKGRFTISRDNAKNTVYLQMNSLKPEDTAVYYCATDPLFITSTRWKYDYWGQGTQVTVSS | low polyreactivity
8 | QVQLVESGGGLVQAGGSLRLSCAASGLIFGYNAMGWYRQAPGKERELVAAISWSGGRTYYADSVKGRFTISRDNAKNTVYLQMNSLKPEDTAVYYCAAVVRHSYFRDDHWGQGTQVTVSS | high polyreactivity
9 | QVQLVESGGGLVQAGGSLRLSCAASGSTFDYNAMGWYRQAPGKERELVAAITTVGITYYADSVKGRFTISRDNAKNTVYLQMNSLKPEDTAVYYCAARCVRYGGRYDYWGQGTQVTVSS | high polyreactivity
10 | QVQLVESGGGLVQAGGSLRLSCAASGIIFYLYAMGWYIQAPGKERELVAAISWGGGTTYYADSVKGRFTISRDNAKNTVYLQMNSLKPEDTAVYYCAAETEYYSYRFDYWGQGTQVTVSS | high polyreactivity
11 | QVQLVESGGGLVQAGGSLRLSCAASGFIFYSNAMGWYRQAPGKERELVAAISWDAGSTYYADSVKGRFTISRDNAKNTVYLQMNSLKPEDTAVYYCATDRIVGRYIYNNWGQGTQVTVSS | high polyreactivity
12 | QVQLVESGGGLVQAGGSLRLSCAATGRTLPPNAMGSYRQAPGKERELVAGITWSGGSTYYADSVKGRFTISRDNAKNTVYLQMNSLKPEDTAVYYCAASRSFPGYGLYYYWGQGTQVTVSS | low polyreactivity
13 | QVQLVESGGGLVQAGGSLRLSCAASGRIFSNNVMGWYIQAPGKERELVATISTDGRTNYADSVKGRFTISRDNAQNTVYLQMNSLKPEDTAVYFCAATGVTILLSSKSDYWGQGTQVTVSS | low polyreactivity
14 | QVQLVESGGGLVQAGGSLRLSCAASGSISFYAMGWYRQAPGKERELVAAITTSGGRTYYADSVKGRFTISRDNAKNTVYLQMNSLKPEDTAVYYCNVASKGRYARYAAEYGSWGQGTQVTVSS | high polyreactivity
15 | QVQLVESGGGLVQAGGSLRLSCAASGFTFYYYPMGWYRQAPGKERELVAAITWRGGSTNYADSVKGRFTISRDNAKNTVYLLMISLKPEDTAVYYCAAVTYWFWPGMDYWGQGTQVTVSS | low polyreactivity
16 | QVQLVESGGGLVQAGGSLSLSCAASVYIFLVYAMGWYRQAPGKERELVAAISSGGSTYYADSVKGRFTISRDNAKNTVYLQMNSLKPEDTAVYYCAKAGLALYAFRDDYWGQGTQVTVSS | low polyreactivity
17 | QDQLVESGGGLVQAGGTLRLSCAASGRIFPYNAMGWYRQAPGKERQLVAAISKSGVRTYYADSVKGRFTISRDNAKNTVYLQMNSLNPEETAVYYCAKLSPYGGDVGASEGPEYDYWGQGTQVTVSS | high polyreactivity
18 | QVQLGESGGGLFQAGGSLRLSCAASVRIFKGYNMGWYREAPRKEMELVAAISKSGGRTYYADSVKGRFTISRDNAKNTVYLQMNSQKPVDTAVYYCAARGGCKRPFGYQLQYDYWGQGTQVTVSS | high polyreactivity
19 | QVQLVESGGGLVQAGGSLRLSCAATGSTIPYYAMGWYRQAPGKERELVARITSGDRTYYADSVKGRFTISRDNAKNTVYLQMNSLKPEDTADYYCNAQVHYYSWYGYWGQGTQVTVSS | high polyreactivity
20 | QVQLVESGGGLVQAGGSLRLSCAASGSIFAYYAMGWYRQAPGKERELVAAISRRGGSTYYADSVKGRFTISRDNAKNTVYLQMNSLKPEDTAVYYCAADGGGTTSLEYGNDYWGQGTQVTVSS | high polyreactivity
21 | QVQLVESGGGLVQAGGSLRLSCAASGSIFPAYTMGWYRPAPGKERELVAAITRRGGSTYYADSVKGRFTISRDNSKNTVYLQMNSLKPEDTAVYYCAAGGLYTPYDYWGQGTQVTVSS | low polyreactivity
22 | QDQLVESGGGLVQAGGSLRLSCAASGSTFKYNAMGWYRQAPGQERELVAAITSGGSTDYADSVKGRFTISRDNAMNHVYFQMNLLNPEDTAVYYCNDDIYPHDGYPWQGDYDYWGQGTQVTVSS | low polyreactivity

Row | Sequence | polyreactivity (PSR sort gate)
23 | QVQLVESGGGLVQAGGSLRLSCAASGSTFIWNAMGWYRQAPGKERELVATITGSGDRTTYADSVKGRFTISRDNAKNTVYLQMNSLKPEDTAVYYCAADAYRWWVRYDYWGQGTQVTVSS | low polyreactivity
24 | QVQLVESGGGLVQAGGSLRLSCAASGSIFVPYAMGWTRQAPGKERELVAAIRRSGGRTYYADSVKGRFTISRDNAKNNVYLQMKSLKPEYTAVFYCAARQRYFWYTSNYNYWAQGTQVTVSS | high polyreactivity
25 | QVQLVESGGGLVQAGGSLRLSCAASGSIFSTYAMGWYRQAPGKERELVAAITSDGTYADSVKGRFTISRDNAKNTVYLQLNSLKPEDTAVYYCNKDIKSATDSYHYEDDYWGQGTQVTVSS | low polyreactivity
26 | QVQLVESGGGVVQAGGSLRLSCAASGSTLRDYVMGWYRQAPGKERELVAAITSRVDDTYYADSVKGRFTISRDNAKNNVYLEMNRLKPEDTAVYYCAADYSVTLRIGGYYWFYAFDYWGQGTQVTVSS | low polyreactivity
27 | QVQLVESGGGLVQAGGSLRLSCAASGSIFSYYAMGWYRQAPGKERELVAAITISGSSTYYADSVKGRFTISRDNAKNTVYLQMNSLKPEDTAVYYCNVVPLGSKNSVSHYYWGQGTQVTVSS | high polyreactivity
28 | QVQLVESGGGLVQAGGSLRLSCAASGRTFYYYAMGWYRQAPGKEREFVASITWRGGRTYYADSVKGRFTISRDNAKNTVYLQMNSLKPEDTAVYYCAAESYHPEYYYWGQGTQVTVSS | high polyreactivity
29 | QDQLVESGGGLVQAGGSLRLSCAASGRTFRYNTMGWYRQAPGKERELVASISWGGGSTYYADSVKGRFTISRDTAKNTVYLQMNSLKPEDTAVYYCAARRWGQFRFEYWGQGTQVTVSS | high polyreactivity
30 | QVQLVESGGGLVQAGGSLRLSCAASGFTFQRNAMGWYRPAPGKERELVAAISKSGGSTYYADSVKGRFTISRDNAKNTVYLQMNSLKPEDTAVYYCARDRGYQSGYDYWGQGTQVTVSS | high polyreactivity
31 | QFQHVESGGCLVQAGGSLRLSSAASGYMFYWYDMGWYRQAPGKERELVAVITSSGLSTYYADSVKGRFTISRDNAKNTVYLQMNSLKPEDTAVYYCNKANTQYSYYFYDYWGQGTQVTVSS | low polyreactivity
32 | QDQVVESGGGLVQAGGSVRLSCADSGSIFWRNAMGWYRQAPGKEREWVAAITSGGTTNYADSVKGRFTLSRDNAKNTVYLQLNTQKPEVTAGDYCATGASDLRRYDHPHSDVDYWGQGTQVTVSA | low polyreactivity
33 | QVQLVESGGGLVQAGGSLRLSCAASGFILGYNAMGLYRQAPGKERELVAAINGGSGSTYYADSVKGRFTISRDNAKNTVYLQMNSLKPEDTAVYYCAAEVTWAFFYERDYWGQGTQVTVSS | high polyreactivity
34 | QVQLVESGGGLVQAGGSLRLSCAASGFIFYYYDMGWYRQAPGKERELVAAITYDGGSTYYADSVKGRFTISRDNAKNTVYLQMNSLKPEDTAVYYCNAVYGQYYDYWGQGTQVTVSS | low polyreactivity
35 | QVQLVESGGGLVQAGGSLRLSCAASGSIFKQNAMGRYRQAPGKESELVSDITSCGGSTYYADSVKGRFTISRDNAKNTVYLQMNSLKPEDTAVYYCNVVETSLELGWQAFDYWGQGTQVTVSS | low polyreactivity
36 | QVQLVESGGGFVQAGGSLRLSCAASGYIFEWNAMGWYRQAPGKERELVASIDSDGSTYYADSVKGRFTISRDNAKNTVYLQMNSLKPEDTAVYYCNARGYTGGEVLAEYDYWGQGTQVTVSS | low polyreactivity
37 | QVQLVESGGGLVQAGGSLRLSCAASGSIFRGNAMGWYRQAPGKERELVATITNGGSTNYADSVKGRFTISRDNAKNTVYLQMNSLKPEDTAVYYCNADHSYHIASTRHVDYWGQGTQVTVSS | low polyreactivity
38 | QVQLVESGGGLVQAGGSLRLSCAASGSIFPYYAMGWYRQAPGKERELVAGISRRGGTTYYADSVKGRFTISRDNAKNTVYLQMNSLKPEDTAVYYCAARYGPYVDRYGYWGQGTQVTVSS | high polyreactivity
39 | QVQLVESGGGLVQAGGSLRLSCAASGSIFRWNAMGWSRQATGKERELVAVINSSGGSTYYADSVKGRFTISRDNAKNTVYLQMNSLKPEDTAVYYCAADVFFYVYEAYLLYYWGQGTQVTVSS | low polyreactivity
40 | QVQLVESGGGLVQAGGSLRLSCAASGSTFSTYAMGWYRQAPGKEREFVAAIRWSGGSTYYADSVKGRFTISRDNAKNTVYLQMNSLKREHTAVYYSAKGIRRWYGGCDYWGQGTKVTVSS | low polyreactivity
41 | QVQLVESGGGLVQAGGSLRLSCAASGSIFRNYAMGWYRQAPGKERELVATIRYRGGRTYADSVKGRFTISRDNAKNTVYLQMNRLKPEDTAFYYCNTYARYAYLTGRMDYWGQGTQVTVSS | high polyreactivity
42 | QVQLVESGGGLVQAGGSLRLSCAASGFIFAYNAMGWYRQAPGKERELVASIRTRGGSTYYADSVKGRFTISRDNAKNTVYLQMNSLKPEDTAVYYCAARPFPRRYDYWGQGTQVTVSS | low polyreactivity
43 | HEHLQESRGGLVQAGGSLRLSCAASGSIFQATYMGWYRQAPRKEREFVASITYGSITNYADSVKGRFTIGRDNATDTLYLQMNSLKQEDTAVYYWAVDRHYIPAFHYWGQGTQVTVSS | low polyreactivity

From the nanobody polyreactivity screen of Harvey et al. (2022)
